The target of assay [1] is T1, EBOV glycoprotein lacking the transmembrane domain (Kikwit) (Zaire ebolavirus, Kikwit-95, UniProt P87666). The assay can be described thus: cell-based or functional assay.
Assay [2] concerns the target T1, EBOV glycoprotein lacking the …. Nature of the assay: ELISA. To be noted: both partners purified.

T1 sequence (P87666 33-650): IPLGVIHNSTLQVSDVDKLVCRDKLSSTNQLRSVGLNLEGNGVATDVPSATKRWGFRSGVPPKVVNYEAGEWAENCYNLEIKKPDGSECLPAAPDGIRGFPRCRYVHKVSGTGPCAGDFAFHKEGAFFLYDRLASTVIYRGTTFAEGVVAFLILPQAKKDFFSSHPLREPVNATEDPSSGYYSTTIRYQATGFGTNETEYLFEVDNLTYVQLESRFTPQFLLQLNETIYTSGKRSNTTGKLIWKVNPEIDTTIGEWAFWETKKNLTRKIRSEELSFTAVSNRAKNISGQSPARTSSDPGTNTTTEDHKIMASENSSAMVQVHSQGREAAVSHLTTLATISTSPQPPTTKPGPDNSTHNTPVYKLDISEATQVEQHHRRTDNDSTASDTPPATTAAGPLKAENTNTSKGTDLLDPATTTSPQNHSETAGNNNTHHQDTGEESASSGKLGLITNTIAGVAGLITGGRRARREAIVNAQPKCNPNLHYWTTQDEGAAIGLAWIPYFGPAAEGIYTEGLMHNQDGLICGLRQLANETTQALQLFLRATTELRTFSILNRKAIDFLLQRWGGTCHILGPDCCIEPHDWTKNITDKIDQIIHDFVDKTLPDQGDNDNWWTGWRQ

B1: KZ52 (human EBOV mAb, monospecific IgG1) (antibody, V domains shown)
VH: EVQLLESGGGLVKPGGSLRLSCAASGFTLINYRMNWVRQAPGKGLEWVSSISSSSSYIHYADSVKGRFTISRDNAENSLYLQMNSLRAEDTAVYYCVREGPRATGYSMADVFDIWGQGTMVTVSS
VL: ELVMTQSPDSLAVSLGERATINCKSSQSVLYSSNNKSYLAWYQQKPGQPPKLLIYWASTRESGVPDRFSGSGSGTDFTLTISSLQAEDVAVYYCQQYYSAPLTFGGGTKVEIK
notes: also called KZ52 IgG1; monospecific KZ52
Regarding B1, the “IC50 of neutralisation of VSV-GP_(EBOV), infection of Vero cells (eGFP)” value in assay [1] was determined as 2.7 nM. Also, the midpoint of the response in assay [2], the EC50, lay at 0.01 nM.

(Values after PMC4725817 (Scientific Reports, 2016).)
